From patent publication US20240108738A1 (Bicycle, published 2024)
Numbered stars: 1 amine (or outer) side, 2 acyl side, 3 side chain; on linkers, the order of the positions; unused ones are H or OH. Bridge positions count the residues as written; N and C are the ends. Square brackets hold non-standard residues; d marks the D form. Ends that are not written are not given here. * marks the point of attachment. TATA = O=C(CC[*:1])N1CN(C(=O)CC[*:2])CN(C(=O)CC[*:3])C1; Pent4ynoyl = C#CCCC(=O)*

Molecular target: T1, Human NKp46 Fc tag (Acro Biosystems, NC1-H5257) (human, UniProt O76036 22-255)
T1 construct: bought; also called Fc-tagged human NKp46
T1 sequence (O76036 22-255 limits assumed): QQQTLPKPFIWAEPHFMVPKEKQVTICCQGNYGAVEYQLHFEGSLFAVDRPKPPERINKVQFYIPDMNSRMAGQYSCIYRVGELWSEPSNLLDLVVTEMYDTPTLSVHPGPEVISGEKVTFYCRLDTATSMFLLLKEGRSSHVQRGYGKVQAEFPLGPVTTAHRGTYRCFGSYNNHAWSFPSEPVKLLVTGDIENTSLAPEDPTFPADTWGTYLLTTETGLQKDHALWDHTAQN
Test: SPR Method 1 and/or 2
Procedure: The SPR analysis was run at 25° C. and a flow rate of 50 μl/min with 60 seconds association and 200-400 seconds dissociation time. Data were corrected for DMSO excluded volume effects. All data were double-referenced for blank injections and reference surface using standard processing procedures and data processing and kinetic fitting were performed using Scrubber software, version 2.0c (BioLogic Software). Data were fitted using simple 1:1 binding model allowing for mass transport effects where appropriate.
For analysis of peptide binding, a Biacore 8k+ instrument was used with a CM5 chip (Cytiva). All experiments were carried out at 25° C. Anti-human IgG (Fc) antibody (Cytiva) was immobilized on all flow cells by standard amine coupling chemistry. The running buffer was HBS-N(Cytiva, 10 mM HEPES, 0.15 M NaCl, pH 7.4) and the flow rate was 10 μL/min. The carboxymethyl dextran surface was activated with a 1:1 ratio of 0.4 M 1-ethyl-3-(3-dimethylaminopropyl) carbodiimide hydrochloride (EDC)/0.1 M N-hydroxy succinimide (NHS) (Cytiva) for 420s. […] Residual activated groups were blocked with a 420 s injection of 1 M ethanolamine (pH 8.5). The final surface density was 3000-5000 RU. Fc-tagged human NKp46 was diluted to 0.1 μM in HBS-N and was captured on flow cell 2 only of the sensor chip at a flow rate of 10 μL/min to 500-1000 RU. The buffer was then changed to PBS-P+(Cytiva) supplemented with 2% DMSO. […] The flow rate was 50 μL/min with 60 s association and 400 s dissociation. Data were corrected for DMSO volume exclusion effects. All data were double-referenced against blank injections and reference surface response using standard processing procedures. Data processing and kinetic fitting was performed using Biacore Insight Evaluation Software with Extended Screening and Characterization Extension (Cytiva). Data were fitted using steady state affinity 1:1 binding model to determine KD. Data were fitted using kinetic 1:1 binding model to determine kinetic constants where appropriate.

Binder	Kd [nM]
ACNLQNPCMKFPCAK(Pent4ynoyl)-NH2 (linker 2-8-13 via TATA (inferred), scaffold TATA) [BCY18004]	414
ACYLPDYLC[dK](Pent4ynoyl)DEYCA-NH2 (linker 2-9-14 via TATA; N-terminus assumed; SMILES C#CCCC(=O)NCCCC[C@H]1NC(=O)[C@@H]2CSCCC(=O)N3CN(CN(C3)C(=O)CCSC[C@@H](C(=O)N[C@@H](C)C(N)=O)NC(=O)[C@H](Cc3ccc(O)cc3)NC(=O)[C@H](CCC(=O)O)NC(=O)[C@H](CC(=O)O)NC1=O)C(=O)CCSC[C@H](NC(=O)[C@H](C)N)C(=O)N[C@@H](Cc1ccc(O)cc1)C(=O)N[C@@H](CC(C)C)C(=O)N1CCC[C@H]1C(=O)N[C@@H](CC(=O)O)C(=O)N[C@@H](Cc1ccc(O)cc1)C(=O)N[C@@H](CC(C)C)C(=O)N2, scaffold TATA) [BCY17662]	8.1
ACYLPK(Pent4ynoyl)YLCGDEYCA-NH2 (linker 2-9-14 via TATA; N-terminus assumed; SMILES C#CCCC(=O)NCCCC[C@@H]1NC(=O)[C@@H]2CCCN2C(=O)[C@H](CC(C)C)NC(=O)[C@H](Cc2ccc(O)cc2)NC(=O)[C@@H](NC(=O)[C@H](C)N)CSCCC(=O)N2CN3CN(C2)C(=O)CCSC[C@@H](C(=O)N[C@@H](C)C(N)=O)NC(=O)[C@H](Cc2ccc(O)cc2)NC(=O)[C@H](CCC(=O)O)NC(=O)[C@H](CC(=O)O)NC(=O)CNC(=O)[C@H](CSCCC3=O)NC(=O)[C@H](CC(C)C)NC(=O)[C@H](Cc2ccc(O)cc2)NC1=O, scaffold TATA) [BCY16837]	42
ACYLPDYLCGDEK(Pent4ynoyl)CA-NH2 (linker 2-9-14 via TATA; N-terminus assumed; SMILES C#CCCC(=O)NCCCC[C@@H]1NC(=O)[C@H](CCC(=O)O)NC(=O)[C@H](CC(=O)O)NC(=O)CNC(=O)[C@@H]2CSCCC(=O)N3CN(CN(C3)C(=O)CCSC[C@@H](C(=O)N[C@@H](C)C(N)=O)NC1=O)C(=O)CCSC[C@H](NC(=O)[C@H](C)N)C(=O)N[C@@H](Cc1ccc(O)cc1)C(=O)N[C@@H](CC(C)C)C(=O)N1CCC[C@H]1C(=O)N[C@@H](CC(=O)O)C(=O)N[C@@H](Cc1ccc(O)cc1)C(=O)N[C@@H](CC(C)C)C(=O)N2, scaffold TATA) [BCY16843]	3010
ACLLHDHCPNTHPKLCAK(Pent4ynoyl)-NH2 (linker 2-8-16 via TATA (inferred), scaffold TATA) [BCY18005]	729
ACYLPDYLCGDK(Pent4ynoyl)YCA-NH2 (linker 2-9-14 via TATA; N-terminus assumed; SMILES C#CCCC(=O)NCCCC[C@@H]1NC(=O)[C@H](CC(=O)O)NC(=O)CNC(=O)[C@@H]2CSCCC(=O)N3CN(CN(C3)C(=O)CCSC[C@@H](C(=O)N[C@@H](C)C(N)=O)NC(=O)[C@H](Cc3ccc(O)cc3)NC1=O)C(=O)CCSC[C@H](NC(=O)[C@H](C)N)C(=O)N[C@@H](Cc1ccc(O)cc1)C(=O)N[C@@H](CC(C)C)C(=O)N1CCC[C@H]1C(=O)N[C@@H](CC(=O)O)C(=O)N[C@@H](Cc1ccc(O)cc1)C(=O)N[C@@H](CC(C)C)C(=O)N2, scaffold TATA) [BCY16842]	2470
ACYLPDYLCK(Pent4ynoyl)DEYCA-NH2 (linker 2-9-14 via TATA; N-terminus assumed; SMILES C#CCCC(=O)NCCCC[C@@H]1NC(=O)[C@@H]2CSCCC(=O)N3CN(CN(C3)C(=O)CCSC[C@@H](C(=O)N[C@@H](C)C(N)=O)NC(=O)[C@H](Cc3ccc(O)cc3)NC(=O)[C@H](CCC(=O)O)NC(=O)[C@H](CC(=O)O)NC1=O)C(=O)CCSC[C@H](NC(=O)[C@H](C)N)C(=O)N[C@@H](Cc1ccc(O)cc1)C(=O)N[C@@H](CC(C)C)C(=O)N1CCC[C@H]1C(=O)N[C@@H](CC(=O)O)C(=O)N[C@@H](Cc1ccc(O)cc1)C(=O)N[C@@H](CC(C)C)C(=O)N2, scaffold TATA) [BCY16840]	60
